Measured values: US20150087577A1 (POLYPHOR, published 2015)
Bridges are numbered along the chain shown (N, C = ends). [ ]: non-standard residue; d: D form. 2Nal = N[C@@H](Cc1ccc2ccccc2c1)C(=O)O; Cit = NC(=O)NCCC[C@H](N)C(=O)O

B1: Example 79 (peptide)
peptide: cyclo(YR[Cit]CRG[dP]RR[2Nal]CYKK[dP]P)
modifications: disulfide 4-11
SMILES: N=C(N)NCCC[C@@H]1NC(=O)[C@@H]2CSSC[C@H](NC(=O)[C@H](Cc3ccc4ccccc4c3)NC(=O)[C@H](CCCNC(=N)N)NC(=O)[C@H](CCCNC(=N)N)NC(=O)[C@H]3CCCN3C(=O)CNC1=O)C(=O)N[C@@H](Cc1ccc(O)cc1)C(=O)N[C@@H](CCCCN)C(=O)N[C@@H](CCCCN)C(=O)N1CCC[C@@H]1C(=O)N1CCC[C@H]1C(=O)N[C@@H](Cc1ccc(O)cc1)C(=O)N[C@@H](CCCNC(=N)N)C(=O)N[C@@H](CCCNC(N)=O)C(=O)N2
B2: Example 88 (peptide)
peptide: cyclo(DR[Cit]CRG[dP]RR[2Nal]CYQK[dP]P)
modifications: disulfide 4-11
SMILES: N=C(N)NCCC[C@@H]1NC(=O)[C@@H]2CSSC[C@H](NC(=O)[C@H](Cc3ccc4ccccc4c3)NC(=O)[C@H](CCCNC(=N)N)NC(=O)[C@H](CCCNC(=N)N)NC(=O)[C@H]3CCCN3C(=O)CNC1=O)C(=O)N[C@@H](Cc1ccc(O)cc1)C(=O)N[C@@H](CCC(N)=O)C(=O)N[C@@H](CCCCN)C(=O)N1CCC[C@@H]1C(=O)N1CCC[C@H]1C(=O)N[C@@H](CC(=O)O)C(=O)N[C@@H](CCCNC(=N)N)C(=O)N[C@@H](CCCNC(N)=O)C(=O)N2
B3: Example 78 (peptide)
peptide: cyclo(YR[Cit]CRG[dP]RR[2Nal]CYDK[dP]P)
modifications: disulfide 4-11
SMILES: N=C(N)NCCC[C@@H]1NC(=O)[C@@H]2CSSC[C@H](NC(=O)[C@H](Cc3ccc4ccccc4c3)NC(=O)[C@H](CCCNC(=N)N)NC(=O)[C@H](CCCNC(=N)N)NC(=O)[C@H]3CCCN3C(=O)CNC1=O)C(=O)N[C@@H](Cc1ccc(O)cc1)C(=O)N[C@@H](CC(=O)O)C(=O)N[C@@H](CCCCN)C(=O)N1CCC[C@@H]1C(=O)N1CCC[C@H]1C(=O)N[C@@H](Cc1ccc(O)cc1)C(=O)N[C@@H](CCCNC(=N)N)C(=O)N[C@@H](CCCNC(N)=O)C(=O)N2
B4: Example 80 (peptide)
peptide: cyclo(YR[Cit]CRG[dP]RR[2Nal]CYAK[dP]P)
modifications: disulfide 4-11
SMILES: C[C@@H]1NC(=O)[C@H](Cc2ccc(O)cc2)NC(=O)[C@@H]2CSSC[C@H](NC(=O)[C@H](CCCNC(N)=O)NC(=O)[C@H](CCCNC(=N)N)NC(=O)[C@H](Cc3ccc(O)cc3)NC(=O)[C@@H]3CCCN3C(=O)[C@H]3CCCN3C(=O)[C@H](CCCCN)NC1=O)C(=O)N[C@@H](CCCNC(=N)N)C(=O)NCC(=O)N1CCC[C@@H]1C(=O)N[C@@H](CCCNC(=N)N)C(=O)N[C@@H](CCCNC(=N)N)C(=O)N[C@@H](Cc1ccc3ccccc3c1)C(=O)N2
B5: Example 6 (peptide)
peptide: cyclo(YR[Cit]VRRR[2Nal]VY[Cit]K[dP]P)
SMILES: CC(C)[C@@H]1NC(=O)[C@H](CCCNC(N)=O)NC(=O)[C@H](CCCNC(=N)N)NC(=O)[C@H](Cc2ccc(O)cc2)NC(=O)[C@@H]2CCCN2C(=O)[C@H]2CCCN2C(=O)[C@H](CCCCN)NC(=O)[C@H](CCCNC(N)=O)NC(=O)[C@H](Cc2ccc(O)cc2)NC(=O)[C@H](C(C)C)NC(=O)[C@H](Cc2ccc3ccccc3c2)NC(=O)[C@H](CCCNC(=N)N)NC(=O)[C@H](CCCNC(=N)N)NC(=O)[C@H](CCCNC(=N)N)NC1=O
B6: Example 86 (peptide)
peptide: cyclo(YR[Cit]CRG[dP]RR[2Nal]CYQA[dP]P)
modifications: disulfide 4-11
SMILES: C[C@@H]1NC(=O)[C@H](CCC(N)=O)NC(=O)[C@H](Cc2ccc(O)cc2)NC(=O)[C@@H]2CSSC[C@H](NC(=O)[C@H](CCCNC(N)=O)NC(=O)[C@H](CCCNC(=N)N)NC(=O)[C@H](Cc3ccc(O)cc3)NC(=O)[C@@H]3CCCN3C(=O)[C@H]3CCCN3C1=O)C(=O)N[C@@H](CCCNC(=N)N)C(=O)NCC(=O)N1CCC[C@@H]1C(=O)N[C@@H](CCCNC(=N)N)C(=O)N[C@@H](CCCNC(=N)N)C(=O)N[C@@H](Cc1ccc3ccccc3c1)C(=O)N2
B7: Example 89 (peptide)
peptide: cyclo(SR[Cit]CRG[dP]RR[2Nal]CYQK[dP]P)
modifications: disulfide 4-11
SMILES: N=C(N)NCCC[C@@H]1NC(=O)[C@@H]2CSSC[C@H](NC(=O)[C@H](Cc3ccc4ccccc4c3)NC(=O)[C@H](CCCNC(=N)N)NC(=O)[C@H](CCCNC(=N)N)NC(=O)[C@H]3CCCN3C(=O)CNC1=O)C(=O)N[C@@H](Cc1ccc(O)cc1)C(=O)N[C@@H](CCC(N)=O)C(=O)N[C@@H](CCCCN)C(=O)N1CCC[C@@H]1C(=O)N1CCC[C@H]1C(=O)N[C@@H](CO)C(=O)N[C@@H](CCCNC(=N)N)C(=O)N[C@@H](CCCNC(N)=O)C(=O)N2
B8: Example 87 (peptide)
peptide: cyclo(YR[Cit]CRG[dP]RR[2Nal]CYQS[dP]P)
modifications: disulfide 4-11
SMILES: N=C(N)NCCC[C@@H]1NC(=O)[C@@H]2CSSC[C@H](NC(=O)[C@H](Cc3ccc4ccccc4c3)NC(=O)[C@H](CCCNC(=N)N)NC(=O)[C@H](CCCNC(=N)N)NC(=O)[C@H]3CCCN3C(=O)CNC1=O)C(=O)N[C@@H](Cc1ccc(O)cc1)C(=O)N[C@@H](CCC(N)=O)C(=O)N[C@@H](CO)C(=O)N1CCC[C@@H]1C(=O)N1CCC[C@H]1C(=O)N[C@@H](Cc1ccc(O)cc1)C(=O)N[C@@H](CCCNC(=N)N)C(=O)N[C@@H](CCCNC(N)=O)C(=O)N2
B9: Example 83 (peptide)
peptide: cyclo(YR[Cit]CRG[dP]RR[2Nal]CYMK[dP]P)
modifications: disulfide 4-11
SMILES: CSCC[C@@H]1NC(=O)[C@H](Cc2ccc(O)cc2)NC(=O)[C@@H]2CSSC[C@H](NC(=O)[C@H](CCCNC(N)=O)NC(=O)[C@H](CCCNC(=N)N)NC(=O)[C@H](Cc3ccc(O)cc3)NC(=O)[C@@H]3CCCN3C(=O)[C@H]3CCCN3C(=O)[C@H](CCCCN)NC1=O)C(=O)N[C@@H](CCCNC(=N)N)C(=O)NCC(=O)N1CCC[C@@H]1C(=O)N[C@@H](CCCNC(=N)N)C(=O)N[C@@H](CCCNC(=N)N)C(=O)N[C@@H](Cc1ccc3ccccc3c1)C(=O)N2
B10: Example 81 (peptide)
peptide: cyclo(YR[Cit]CRG[dP]RR[2Nal]CYSK[dP]P)
modifications: disulfide 4-11
SMILES: N=C(N)NCCC[C@@H]1NC(=O)[C@@H]2CSSC[C@H](NC(=O)[C@H](Cc3ccc4ccccc4c3)NC(=O)[C@H](CCCNC(=N)N)NC(=O)[C@H](CCCNC(=N)N)NC(=O)[C@H]3CCCN3C(=O)CNC1=O)C(=O)N[C@@H](Cc1ccc(O)cc1)C(=O)N[C@@H](CO)C(=O)N[C@@H](CCCCN)C(=O)N1CCC[C@@H]1C(=O)N1CCC[C@H]1C(=O)N[C@@H](Cc1ccc(O)cc1)C(=O)N[C@@H](CCCNC(=N)N)C(=O)N[C@@H](CCCNC(N)=O)C(=O)N2
B11: Example 82 (peptide)
peptide: cyclo(YR[Cit]CRG[dP]RR[2Nal]CYLK[dP]P)
modifications: disulfide 4-11
SMILES: CC(C)C[C@@H]1NC(=O)[C@H](Cc2ccc(O)cc2)NC(=O)[C@@H]2CSSC[C@H](NC(=O)[C@H](CCCNC(N)=O)NC(=O)[C@H](CCCNC(=N)N)NC(=O)[C@H](Cc3ccc(O)cc3)NC(=O)[C@@H]3CCCN3C(=O)[C@H]3CCCN3C(=O)[C@H](CCCCN)NC1=O)C(=O)N[C@@H](CCCNC(=N)N)C(=O)NCC(=O)N1CCC[C@@H]1C(=O)N[C@@H](CCCNC(=N)N)C(=O)N[C@@H](CCCNC(=N)N)C(=O)N[C@@H](Cc1ccc3ccccc3c1)C(=O)N2
B12: Example 90 (peptide)
peptide: cyclo(VR[Cit]CRG[dP]RR[2Nal]CYQK[dP]P)
modifications: disulfide 4-11
SMILES: CC(C)[C@@H]1NC(=O)[C@@H]2CCCN2C(=O)[C@H]2CCCN2C(=O)[C@H](CCCCN)NC(=O)[C@H](CCC(N)=O)NC(=O)[C@H](Cc2ccc(O)cc2)NC(=O)[C@@H]2CSSC[C@H](NC(=O)[C@H](CCCNC(N)=O)NC(=O)[C@H](CCCNC(=N)N)NC1=O)C(=O)N[C@@H](CCCNC(=N)N)C(=O)NCC(=O)N1CCC[C@@H]1C(=O)N[C@@H](CCCNC(=N)N)C(=O)N[C@@H](CCCNC(=N)N)C(=O)N[C@@H](Cc1ccc3ccccc3c1)C(=O)N2
B13: Example 85 (peptide)
peptide: cyclo(YR[Cit]CRG[dP]RR[2Nal]CYQD[dP]P)
modifications: disulfide 4-11
SMILES: N=C(N)NCCC[C@@H]1NC(=O)[C@@H]2CSSC[C@H](NC(=O)[C@H](Cc3ccc4ccccc4c3)NC(=O)[C@H](CCCNC(=N)N)NC(=O)[C@H](CCCNC(=N)N)NC(=O)[C@H]3CCCN3C(=O)CNC1=O)C(=O)N[C@@H](Cc1ccc(O)cc1)C(=O)N[C@@H](CCC(N)=O)C(=O)N[C@@H](CC(=O)O)C(=O)N1CCC[C@@H]1C(=O)N1CCC[C@H]1C(=O)N[C@@H](Cc1ccc(O)cc1)C(=O)N[C@@H](CCCNC(=N)N)C(=O)N[C@@H](CCCNC(N)=O)C(=O)N2
B14: Example 84 (peptide)
peptide: cyclo(YR[Cit]CRG[dP]RR[2Nal]CYQN[dP]P)
modifications: disulfide 4-11
SMILES: N=C(N)NCCC[C@@H]1NC(=O)[C@@H]2CSSC[C@H](NC(=O)[C@H](Cc3ccc4ccccc4c3)NC(=O)[C@H](CCCNC(=N)N)NC(=O)[C@H](CCCNC(=N)N)NC(=O)[C@H]3CCCN3C(=O)CNC1=O)C(=O)N[C@@H](Cc1ccc(O)cc1)C(=O)N[C@@H](CCC(N)=O)C(=O)N[C@@H](CC(N)=O)C(=O)N1CCC[C@@H]1C(=O)N1CCC[C@H]1C(=O)N[C@@H](Cc1ccc(O)cc1)C(=O)N[C@@H](CCCNC(=N)N)C(=O)N[C@@H](CCCNC(N)=O)C(=O)N2

Each binder was assayed against human CXCR4 (human, UniProt P61073 1-352) (assay: cell-based or functional assay).
Sequence of human CXCR4 (P61073 whole entry): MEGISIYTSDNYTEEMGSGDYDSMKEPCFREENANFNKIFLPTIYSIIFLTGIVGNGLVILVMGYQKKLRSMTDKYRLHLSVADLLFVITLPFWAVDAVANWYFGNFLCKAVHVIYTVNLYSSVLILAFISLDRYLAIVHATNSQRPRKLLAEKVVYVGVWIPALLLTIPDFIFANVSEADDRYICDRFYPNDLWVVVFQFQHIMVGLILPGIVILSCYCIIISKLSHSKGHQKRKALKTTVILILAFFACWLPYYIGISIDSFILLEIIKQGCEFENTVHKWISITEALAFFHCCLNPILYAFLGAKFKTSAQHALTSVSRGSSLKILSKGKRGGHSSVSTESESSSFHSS

Row | IC50 (nM) Ca2+ assay (method 2) | IC50 (nM) Ca2+ assay (method 1) | Binder
1 | 2.4 nM | – | B1
2 | 2.5 nM | – | B2
3 | 11 nM | – | B3
4 | 2.9 nM | – | B4
5 | – | 1930 nM | B5
6 | 0.69 nM | – | B6
7 | 0.5 nM | – | B7
8 | 3.5 nM | – | B8
9 | 3.7 nM | – | B9
10 | 4.9 nM | – | B10
11 | 4.8 nM | – | B11
12 | 19.5 nM | – | B12
13 | 2.7 nM | – | B13
14 | 3.9 nM | – | B14
